Results published in patent publication US20250243240A1.

Biological target: Vascular endothelial growth factor (VEGF) (Homo sapiens (Human)) (UniProt P15692)

relative titer: 6.6%
Substance: Peak 1 fraction of hydrophobic interaction chromatography of purified aflibercept (pool or library)
